The results in this text go back to US20190112387A1 (ISTITUTO BIOCHIMICO ITALIANO GIOVANNI LORENZINI S P A, published 2019).

In the test the target is T1, human ERBB2 receptor (human, UniProt P04626 23-1255).
T1 construct: whole, on cells; Presented on human breast carcinoma cell lines with different ERBB2 levels; also called HER2; Neu-Erb
The test is described as follows: flow cytometry on SK-BR-3 cells (FIG. 7 legend). As for the experimental part: Humanized heavy SEQ NO.1 and light chains SEQ. NO.2 or SEQ. […] The cells were cultured in Erlenmeyer flask in incubator at 37° C., 5% CO₂ on a shaker at 120 rpm for at least 14 days. The surnatants were purified through standard protein A resins. […] NO.1 and SEQ.

B1: humanized W6/800 antibody huW6/800 (antibody, V domains shown)
VH: QVQLVQSGAEVKKPGASVKISCKASGYTFSNYWIEWVRQAPGQGLEWMGEILPGSGSTNYNEKLKGRVTSTRDTSISTAYMELSRLRSDDTGVYYCARGGGNYPYYFDYWGQGTTVTVSS
VL: DIQMTQSPSTLSASVGDRVTITCKASQDVGTAVAWYQQKPGKAPKLLIYWASTRHTGVPSRFSGSGSGTEFTLTISSLQPDDFADYFCQQYSSYRTFGAGTKLEIK
notes: also called humanized antibody
Take B1: the binding result is listed as “binds”.

B2: mAb W6/800 (antibody, V domains shown)
VH: QVQLQQSGAELMKPGASVKISCKATGYTFSNYWIEWVKQRPGHGLEWIGEILPGSGSTNYNEKLKGKATFTADTSSNTAYMQLSSLTSEDSGVYYCARGGGNYPYYFDYWGQGTTVTVSS
VL: IELMTQSHKFMSTSVGDRVSITCKASQDVGTAVAWYQQKPGQSPKLLIYWASTRHTGVPDRFTGSGSGTDFTLTISNVQSEDLADYFCQQYSSYRTFGAGTKLE
notes: Murine IgG2a purified from hybridoma cultures; they are assigned here by order and by likeness to the humanized VH and VL; also called murine W6/800; parental murine antibody
Take B2: the binding result is listed as “binds”.
